The RNAGym collection of RNA variant scans (doi:10.7554/elife.90254)

B1: LINE1-full (parent)
chain: UACGUAGGUGGUUUUCCCCUGAUAGUGCUAAGGGGGCCUGGAAGUUUGGACUGGGCAGAGCUCAACACAGCGUGGCAAAGUGGCUGUGGCUAGACUGCCUCUCUGGAUUCCUCGUCACUCAGCAGGGCAUCUCUGAGAGAAAUGCC

Variants of: B1
Experiment: self-cleavage, relative activity (ratio to wild type); higher = more cleavage; in vitro, sequencing; the parent is a self-cleaving ribozyme
Variant A64C G75U has a self-cleavage of 0.08.
For C63A G97A, the self-cleavage was 0.01.
Work on A65G A78U yielded a self-cleavage of 0.03.
For U62C U91A, the self-cleavage was 0.08.
With U62C U91C the self-cleavage was 0.04.
In the case of A64U U85A, the self-cleavage is reported as 0.06.
U62C G106A gave a self-cleavage of 0.08.
In the case of A65G U73G, the self-cleavage is reported as 0.08.
With C63A U87C the self-cleavage was 0.06.
Variant C63A U87A has a self-cleavage of 0.04.
Work on A65U A142G yielded a self-cleavage of 0.19.
C63A U100C gave a self-cleavage of 0.04.
In the case of A65U U119A, the self-cleavage is reported as 0.21.
Work on A65U U73A yielded a self-cleavage of 0.18.
C63U G74A gave a self-cleavage of 0.22.
With A64U C68A the self-cleavage was 0.01.
Variant A64C A140G has a self-cleavage of 0.24.
With A65U A138G the self-cleavage was 0.24.
Variant A64G U108A has a self-cleavage of 0.12.
Work on A65G C131G yielded a self-cleavage of 0.06.
Variant C63U A136G has a self-cleavage of 0.34.
For A65U U81C, the self-cleavage was 0.19.
Variant A65G C95A has a self-cleavage of 0.04.
For A64G U115C, the self-cleavage was 0.27.
U62G A69U gave a self-cleavage of 0.05.
A65G U132C showed a self-cleavage of 0.07.
A64U U119A gave a self-cleavage of 0.34.
U62C U132C gave a self-cleavage of 0.06.
Work on A64G G75A yielded a self-cleavage of 0.17.
A64G A78G showed a self-cleavage of 0.25.
For A65U A129G, the self-cleavage was 0.38.
In the case of A65U A129U, the self-cleavage is reported as 0.18.
U62C U112A showed a self-cleavage of 0.05.
Work on U62C U112G yielded a self-cleavage of 0.
For A64U C133U, the self-cleavage was 0.49.
Work on A64G U102C yielded a self-cleavage of 0.34.
Variant A64U A79U has a self-cleavage of 0.64.
With A65G A142C the self-cleavage was 0.08.
Variant C63A U119C has a self-cleavage of 0.02.
In the case of A65G A121C, the self-cleavage is reported as 0.07.
A65G A121U gave a self-cleavage of 0.04.
With U62G A65U the self-cleavage was 0.16.
For A64U A77C, the self-cleavage was 0.39.
Work on C63U U81C yielded a self-cleavage of 0.4.
A65G U108C gave a self-cleavage of 0.07.
With A65G U108A the self-cleavage was 0.04.
With A65G G114A the self-cleavage was 0.04.
Work on A64U U96A yielded a self-cleavage of 0.06.
In the case of A64U A65U, the self-cleavage is reported as 0.02.
For A65U U115C, the self-cleavage was 0.26.
With A64U U91C the self-cleavage was 0.18.
C63U U109A gave a self-cleavage of 0.12.
For A65U C146U, the self-cleavage was 0.16.
A64U showed a self-cleavage of 0.41.
In the case of A64G, the self-cleavage is reported as 0.25.
In the case of A64C, the self-cleavage is reported as 0.35.
In the case of A64G A65G, the self-cleavage is reported as 0.11.
Work on A65G A117G yielded a self-cleavage of 0.08.
With A64C A124U the self-cleavage was 0.27.
With A64U C123U the self-cleavage was 0.41.
With U62C U108G the self-cleavage was 0.
Work on U62C U108C yielded a self-cleavage of 0.05.
A64U U81G gave a self-cleavage of 0.4.
A65U G139A gave a self-cleavage of 0.15.
Work on C63A U108C yielded a self-cleavage of 0.08.
With C63U A129U the self-cleavage was 0.54.
Variant U62G G82U has a self-cleavage of 0.03.
Work on A64G G137A yielded a self-cleavage of 0.21.
A64U C95U showed a self-cleavage of 0.07.
Work on C66U A69G yielded a self-cleavage of 0.06.
Work on A64G A141G yielded a self-cleavage of 0.21.
Work on U62C U143G yielded a self-cleavage of 0.08.
In the case of A64U A107G, the self-cleavage is reported as 0.45.
For A64G C133U, the self-cleavage was 0.06.
Variant A64G U119C has a self-cleavage of 0.32.
In the case of A64G A121U, the self-cleavage is reported as 0.22.
A64G A121C gave a self-cleavage of 0.24.
For A64G G93A, the self-cleavage was 0.04.
Work on A65G G89C yielded a self-cleavage of 0.03.
For A65G G89A, the self-cleavage was 0.04.
Variant C63G U130C has a self-cleavage of 0.34.
A65U G127A gave a self-cleavage of 0.68.
U62C G70A gave a self-cleavage of 0.01.
In the case of C63U U104C, the self-cleavage is reported as 0.1.
A64U U104C showed a self-cleavage of 0.62.
A65G A92G showed a self-cleavage of 0.09.
Work on A65G A92C yielded a self-cleavage of 0.
Work on A65G A92U yielded a self-cleavage of 0.1.
In the case of A64C A79G, the self-cleavage is reported as 0.28.
With C63U C123U the self-cleavage was 0.38.
A64G U91C gave a self-cleavage of 0.07.
Variant A64C A67U has a self-cleavage of 0.11.
For A65G U112C, the self-cleavage was 0.1.
For C63A A124U, the self-cleavage was 0.03.
A64U U130A showed a self-cleavage of 0.62.
A64U C111A showed a self-cleavage of 0.35.
For C66U A140G, the self-cleavage was 0.04.
In the case of A65G C116U, the self-cleavage is reported as 0.05.
For C66U A138U, the self-cleavage was 0.03.
With A65G A94G the self-cleavage was 0.03.
A64G A140U gave a self-cleavage of 0.3.
For C63U C128U, the self-cleavage was 0.23.
In the case of A65G U104A, the self-cleavage is reported as 0.05.
U62G A78G showed a self-cleavage of 0.06.
For A64G A79U, the self-cleavage was 0.34.
A65G A138G gave a self-cleavage of 0.06.
In the case of A65G C76U, the self-cleavage is reported as 0.02.
Work on A64G A107C yielded a self-cleavage of 0.12.
For A65U U96C, the self-cleavage was 0.02.
With A64G A94U the self-cleavage was 0.08.
Variant A64G A94G has a self-cleavage of 0.06.
Variant A64C A107G has a self-cleavage of 0.36.
A64U A124U showed a self-cleavage of 0.38.
A64U A124G showed a self-cleavage of 0.3.
With A64U G127C the self-cleavage was 0.6.
Variant A65U A140G has a self-cleavage of 0.26.
A65U A140U gave a self-cleavage of 0.1.
A65C G105U showed a self-cleavage of 0.03.
Variant A64G G80A has a self-cleavage of 0.39.
Variant A64G G114U has a self-cleavage of 0.24.
For U62C G72C, the self-cleavage was 0.03.
U62C G72U gave a self-cleavage of 0.03.
Work on C63U A77G yielded a self-cleavage of 0.62.
Work on A65G C111U yielded a self-cleavage of 0.06.
Variant U62C G105A has a self-cleavage of 0.03.
For A64U A117G, the self-cleavage was 0.53.
Work on A64G U81A yielded a self-cleavage of 0.34.
Variant A65G U91C has a self-cleavage of 0.
U62C G139A gave a self-cleavage of 0.03.
With A64U U73C the self-cleavage was 0.58.
With A64U U73A the self-cleavage was 0.21.
U62C G97A showed a self-cleavage of 0.03.
In the case of A64C U100C, the self-cleavage is reported as 0.62.
Variant A64G G88C has a self-cleavage of 0.04.
Variant A65G A124G has a self-cleavage of 0.07.
Variant A65G A124U has a self-cleavage of 0.04.
Work on A64U U112A yielded a self-cleavage of 0.47.
In the case of U62C U100A, the self-cleavage is reported as 0.05.
Variant A64U G80U has a self-cleavage of 0.47.
In the case of C66U A136G, the self-cleavage is reported as 0.04.
U62C G82A gave a self-cleavage of 0.04.
U62G C84G showed a self-cleavage of 0.49.
A65U A67G gave a self-cleavage of 0.15.
In the case of A64C C103A, the self-cleavage is reported as 0.29.
In the case of A65U A124U, the self-cleavage is reported as 0.18.
A65U A124G showed a self-cleavage of 0.09.
For A64U G106U, the self-cleavage was 0.34.
Work on A64G U134C yielded a self-cleavage of 0.28.
A64G U143A showed a self-cleavage of 0.24.
With A65U A117G the self-cleavage was 0.24.
Variant U62C G126A has a self-cleavage of 0.04.
C63A A117G gave a self-cleavage of 0.08.
Work on A65G U81A yielded a self-cleavage of 0.06.
A65G G135A showed a self-cleavage of 0.1.
For C63U U96C, the self-cleavage was 0.
Variant C63U U96A has a self-cleavage of 0.05.
A65C G97A showed a self-cleavage of 0.04.
With A65G C71U the self-cleavage was 0.03.
In the case of A65G C68A, the self-cleavage is reported as 0.04.
In the case of A64C A78U, the self-cleavage is reported as 0.46.
With A65U A121U the self-cleavage was 0.24.
With A64C A117G the self-cleavage was 0.42.
C63A A77G showed a self-cleavage of 0.04.
A64U U87G gave a self-cleavage of 0.11.
Work on A64U U87A yielded a self-cleavage of 0.06.
A65C U87C gave a self-cleavage of 0.04.
In the case of A64G G125A, the self-cleavage is reported as 0.31.
